This assay has as its target T1, murine CD47 (murine, UniProt Q61735 19-303).
T1 sequence (looked up): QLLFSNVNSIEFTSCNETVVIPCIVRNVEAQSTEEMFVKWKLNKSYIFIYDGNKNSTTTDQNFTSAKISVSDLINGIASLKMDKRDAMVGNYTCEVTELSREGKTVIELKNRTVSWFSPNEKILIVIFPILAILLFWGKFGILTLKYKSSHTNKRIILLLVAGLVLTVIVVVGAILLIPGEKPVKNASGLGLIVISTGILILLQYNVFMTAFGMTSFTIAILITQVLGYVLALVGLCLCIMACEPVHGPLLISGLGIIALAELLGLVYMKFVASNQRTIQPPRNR
Description: cell-based or functional assay.

A value given as a limit tells only on which side of the number the result lay.

B1: anti-mCD47 nanobody-ultraID (murine CD47) (other)
chain: QVQLVESGGGLVEPGGSLRLSCAASGIIFKINDMGWYRQAPGKRREWVAASTGGDEAIYRDSVKDRFTISRDAKNSVFLQMNSLKPEDTAVYYCTAVISTDRDGTEWRRYWGQGTQVTVSSGGLPETGGGGGSGGGSGGGSMFKNLIWLKEVDSTQERLKEWNVSYGTALVADRQTKGRGGPGRKWLSQEGGLYFSFLLNPKEFENLLQLPLVLGLSVSEALEEITEIPFSLKWPNDVYFQEKKVSGVLCELSKDKLIVGIGINVNQREIPEEIKDRATTLYEITGKDWDRKEVLLKVLKRISENLKKFKEK
Take B1: the “biotin labeling of B16 cells, fold over non-targeted ultraID at 1 nM” value was 10 fold and the “streptavidin-PE signal on B16 cells, enzyme-based labeling relative to binding by the biotinylated nanobody construct alone” value was no less than 20 fold.
